Test results as given in the DeepSol protein solubility set.

assay: soluble on expression in E. coli; label from the status in PepcDB or PDB records

Soluble on expression in E. coli, not soluble:
MGSDKIHHHHHHMHAWESIQITLDLIEANLSEEISINELANKANLSPFYYQRLFKRLVNKTVMEYIKLRRLARASEYLAEHKNRILDVALNFGFASHETFTRSFKKAYGLTPEKYRANPVKLNHFIKPELILNYAMVDEGVPLIADDIVIEVNRKTLSNPRTFVGIEIEVPICQLVGGETTGIAIVEELWMKLGSQRHNIPNQIPGGNEFAALYMGNAKEGNCMYMAGVEVESGTSVEGYSTFELPVKEYLVCGFEAENFNELVNSAVFKADKFMERWMKKHNLTTTDFAIEMYYPTTPEAAYLEHWIVPVPIEQ, MGSDKIHHHHHHMHFLEKYRFLVIGHRGLPSLCLENTVESFNATFNAGMPAVELDVQYTADGVPVVFHDFDLNRLAGRNSRIGDLKWDDLSKIRLASGSTIPRLSDVLSAFENFNFFIEIKIEKFDNAERKLTDDVARMVIDRSMNDNVVMISFNASAMRYVRDHYDGIITGLDFESPDEADDAVNNNVALPYYAIIDEVFDKIKERPVIPWTVDSYSTAVRLKEMGCRGIITNTGDRFISLIE, MGSDKIHHHHHHMHLDNEADHHSENKAEAPGIQPAVTRNVADISPQIAQCAVEWLVELQAADHDEATHEAFQRWLAAHPDHKLAWQHIETVNTRFNGLTSPLGSAVAKAVLTPRRSLKRRQIIKTLVVILFAGSTGWWADEKIPWRAWTADERTHIGQRRNITLADGSRVVLNTDTAINIRFTANERRLQLVRGEILVTTNQDSASIVRPFIVEIAQSELRPLGTRFTIHQQTTSNRLSVFEGAVEIRLRQDINYRHIVQAGEQVDFSNQGIHEIHPADDTSTAWSNGMIIASSMRLADFLAELDRHRPGKLNCDPAVADLRVSGTYPLTDPEDILDALQTTLPVKIQYFTRYWVTVRPAS, MGSDKIHHHHHHMHPALWISKTGLDAQQTDISVISNNVANASTIGYKKSRAVFEDLLYQTVNQAGGISADNTKLPNGLNIGAGTKVVATQKMFSQGNMLTTDNSLDLMIEGPGFFEVQLPDGTPAYTRNGQFSLDDTGQIVTPGSGYVLQPAITIPENATGITVSAGGEVSVKIPGTAESQVIGQITMTDFINPSGLDPLGQNLYTETGASGTPIQGTASLDGLGAIRQGALETSNVNVTEELVNLIQSQRIYEMNSKVISAVDQMLAYINQNL, MGSDKIHHHHHHMHSHHPISHDVVISGAGPVGLFLACELRLAGLSVLILEKAEDPRSPLKRLPFGMRGLSAPTIEAFHRRDLLDAIAPPTTKDGSGKLVAAHWMQQPRRPGGHFAGIQFHLDAVDSSKWPYRLPGPAGTSMAVEMEQLETMLATRATAMGVEIRRGLGVEIFDQSDEDVTIRAGGEIFRARWLVGCDGGRSTVRKLGGFAFTGTDAEFTGYSVEVEIADPDALSPGRHYTPTGMYTYSRPGTIAMVEFDGATFHRTEPITLEHVQAVLRRVSGTDVTLTALRLATTWTDRAYQASAYRNGRVLLAGDAAHIHSPLGGQGLNLGIGDAMNLGWKLAATIRGDAPAGLLDSYFDERHPVGAQILDWSRAQVALMRPSRSSRALEAIIRDLIDTRDGATYFAERVWGVSLRYDVGGSHPLVGRSAPDFELADGTRPGERLRTGQALLLDFAARPALQALASRWSGRIAYVAEDARERLGLSALLVRPDGVVAWAADGEPDLEGAAQAASRWFGEPGQVAAYAKGTV, MGSDKIHHHHHHMHVVELRFECFDNTTITAAERAINGLLEAYRANGQVLGREFAVAFNEGEFRVRLLLPEKSSLAKRFNSPWVNYALEELTQAKLLHPREKYIGQDINSEVSSTETPSWQLLYTSYVHMCSPLRNGDTLQPIPLYQIPATFNGDHKRVIKWQTEWQACDELQMAAATKAEFAALDELSQCDSDLFRRGWDLRGRIEYLTKIPTYYYLYRVGGESLAAEQQRPCPRCGNTHWLLETPLLDLFHFRCDNCRIVSNISWDHL, MGSDKIHHHHHHMIAAIDIGTESARLMFKSNGEWKVLKKSYRIFFPSPEAAEQDPNEIFSAVFDLLKQVPNEDEVLYVGMSSVFHSIIGLDENLNPVTPLLNWADRRSFREKEELEKKYGVRFFYEKTACPLHPMYWPSKILWMKKNSNAKKFCSIKAYIVNKMTREFVEELSLASGTGMMNIHSLEWDGEILEITGVRKEDLPEIKSPYTQLRVKDEIAKELGFKKVYLVLGGGDGVMTNVGVNVMDPDSATVTIGTSGAFRVVMDRPVIDREGISTWCYLIDEENYVLGGAINNGGIVLMWLRDIMKFKDYNDIIEEAKESPAGANGLVFLPFLNGERAPHWRERYRGVLVGLTSSHRRSDIARAALEGICFRIKDIHNAVKRVGSVDPNRIVATGGFTSSPYWVQLLSDVLGKDIIVTNVENPSAFGAYVMALKSLGEDVEGFIEKEVRVERVFHPDSERNAVYERLYNDYKFLYEKLVDYYYKE, MGSDKIHHHHHHMIAEPFLFRSEGGFIRIPIWGHIPLSAPLKKILAHPSFLRLKGIRQLSFAQQVYPGANHTRFEHSIGVYHLMKMILQRMVSNPLALELQDERLQFDDETCRTLLATCLLHDIGHYPHAHVLEEITPAGDSSAVFAHHESLTGQFLNEEHRDTPSIAAILHDDWQVNPDTVTEIIAGKTAHRLGKLVSGTLDPDKMDYLMRDAHHCNIPYGSIDIERLIESFVPDPERQRLAITEKGIAPLESLLFAKYMMMRNVYWHHTSRTFSTMLRRLLQDVADESALPMETLRELFYFNSDDRVLFELERAIRGLGLPAAELLDAILERRVYKRAMTIRPYHEPSMEIDPVWFAYNTSHRRRKEKELEICAMLAGKTGKRLAGHEVLIDAPPSKDVFDYSDFRELRIWPTKSEHRHLVQPTDSNGYVRFDDFRESVFGSDFILSFEQYTKKFRLLCRHDLVDTLSGLEEAVVEILRR, MGSDKIHHHHHHMIAIEEIGRITPDNLGLVTVLAGEDLGQYAQMKEKLFQVIGFNKDDLAYSYFDLSEEDYQNAELDLESLPFLSDYKVVIFDQFQDITTDKKTYLDEQAMKRFEAYLQNPVDTTRLVICAPGKLDGKRRLVKLLKRDARVLEANTLKESDLKTYFQKYAHQEGLVFEAGVFDELLIKSNYDFSDTLTNIAFLKSYKTDGHISSNDVREAIPKSLQDNIFDLTQDVLLGRIDLARDLVRDLRLQGEDEIKLIAIMLGQFRMFLQVKILASKGKSESQIVSELSHYIGRKINPYQVKFAVRDSRNLPLAFLKEAIRILIETDYAIKRGTYDKDYLFDLALLKIAHKKP, MGSDKIHHHHHHMIEANQILAKMKNQKINYDKVLRKIISQWERDGERPKILLHSCCAPCSTYTLEFLTQYADIAIYFANPNIHPKSEYLRRAKVQEQFVNDFNNKTGASVKYIEAEYEPHKFMKMAKDKGLTEEPEGGLRCTACFEMRLEIVAKAALEHGYDYFGSAITLSPKKNAQLINELGMDVQNIYNVKYLPSDFKKNKGYERSIEMCNDYNIFRQCYCGCVFAAMKQGIDFKQINKDAQAFLQQF, MGSDKIHHHHHHMIENVNYARTLLTEEEVGHIVQSGTIVRYKKGQIIFSESDAADRVYFVKEGYVRIFRITQYGRRVTVGCIRSPGQLMGLAETLYGGDRTCFASAIDDVTIVVIRHQQFLDLLEKHPAIAIKVTITLAIRMREAEGIIEEMVCFQVPGRLAQLLIKMAKRAGMETPRGTKISFRLTHEDIAYMIGTSRQNVTSLLNTFKYENSIAIEDKELYILDIEKLNSWVV, MGSDKIHHHHHHMIHKRSNSPNMKPIIEIKNLAAGYDGRTVLHDVNLNVYERDFLGIIGPNGGGKTTLIKCILGLLKPTAGEINFHAPTEASSHSQLSTSNLPLSLGYLPQYSTIDRKFPISVEEVILSGLSIQKSLTSRFTPEQREKGKHIIARMGLEGLEHRSIGQLSGGQLQRALLGRAIISDPSVLILDEPSTYIDKRFEARLYELLAEINKECAIILVSHDIGTVLQQVKSIACVNETLDYHPDTGVSTEWLERNFNCPIELLGHGTLPHRVLGEHHHHH, MGSDKIHHHHHHMIKEIRQRIENFESDYVFTYQDLNLSPERSERVIKILNRLVAEGIIAKISKGRFYKPKKSVFGMLKPKLEEVVKDFLEKDGEVIGYMTGYLAFNRLGLTTQVPNIIQIGTNVRKNKTVRGMFTISFVIQSNPITKENIPLLQLLDAIKFIKEIPDTTTSQSCKCIMTIIQNLNKKDRDELLILAKKYPPMVRALLGAMVENIYGTNKALPLWNTLNPLTLYNVKIDKQVLPEVRKWRIQ, MGSDKIHHHHHHMIKIKRGLDLPISGAPEQRIEAARPVRSVALIGFDYHGMKPTMAVQVGDRVKLGQVLFTDKKNPSVSYTAPGAGVVSAIHRGEKRVLQSVVIDLDGDEQLEFARYPADKLATLSAEQVRDNLLQSGLWTALRTRPFSKVPDPESSPSSIFVTAIDTQPLAADPQVVIAEQGEAFQAGLTVLGRLARVFLCKAEGVSLPGEALSGVTAQAFSGPHPAGLPGTHIHFLDPVGAGKSVWNLNYQDVIAIGKLFTTGQLWTERVIALAGPVVEKPRLVRTRLGANLDELAAGQLQPGNNRLISGSVLGGRTAHGAYAYLGRYHLQLSCLKEGDQREFLHYLRAGVEKHSLLNVFVSRLLGGKRFAFTTSTNGSPRAMVPVGNYEAVMPLDILPTQLLRYLIVGDTEMAQKLGALELDEEDLALCSYVCAGKYEYGPILRDNLARIEQEG, MGSDKIHHHHHHMILFGTGGIRGVMRKGEFDEETVKRASLSTALWLKEKGQKSVVIAYDTRKNSKEFAELAGRVFAGEGIEAYVFPEPTPTPVLSFAVRYMKTGGGVVITASHNPPEYNGYKVYTWDGVQAIPEYTNEITEIYKKVDLSHVKEGEIKFVPPEVKESYIKAVLEIVSNLPMKTDLDIAYSPLHGTGANYVPEVLKRLGFKVRLVEEQMKPDPNFSTVPTPNPEEDEALVLLNKKGATLGLATDPDCDRVGVVFKGRRLTGNQVGVLLTDFLLDHVKVENPLVIKTIVTTDMVRPICEEKGAFLEETPTGFKFIGHLIEEHTKKGDRNFVFGFEESCGYLAGNHARDKDGVVGSVLSAVAFSNYDPYEKLEELYQKYGYYMEKLINFKFEDVDRAVEIYRSLKNYDGIIDYSKGYGNVIPNETIAFVFEKSRIFVRPSGTEPKLKVYIHVRGDTREEAEELMKESESKIKEILKL, MGSDKIHHHHHHMILKFLNETLPWVRKPSRYIGREINSVVKDPEEISLRIALVFPDTYEVGTSNHGLEILYHILNEQPDVWAERSYLPWIDMIERMKEKDIPLYTMESYTPLYQMDAVGISLEYELSYTNVVEVLKLSKIPIFFWERKRRDPIVLGGGPCSSNPEPIYGFFDAILIGDGEEAILEIAQVLKETKGEERETIWKELSRIEGVYVPAFYEQKGRKIVPVSPEYPRTIKRRIVKDLNSQPVPVKKIVPNVESVHDRAVIEVARGCTRGCRFCHASVYYRPVRERSLENILENVEEMLKNTGYEEVSLLSLSTMDHTQIGEIVSELLKRYSEKKIAVSIPSTRMDRFGVEIAGRIASVRKTGLTFAPEAATQRLRNIINKNISEEDIFATLEAAKKSGWRRVKLYFMMGLPGETNEDLEEMVKLLERVKRLGFKEVSASVSVFVPKPHTPFQFARQISPEEAYEKIKTLKRAKRSARISYHDPRMSLLEGVFSRGDRKLLDLIVKAHELGALFDEWSEMFRFDLWEKAFDETGIDPNDYLREIDPSEDFPWDHIDMGVTKEFLKEEYRKALKGETTDDCRWNRCYLCGVCFRFGVKNVLFGGERG, MGSDKIHHHHHHMILMKSYYRLLGHYYLLLRFFKNLRDLGVSLLELENILGVIYWYLFKQKYSTRCRCCSELYINQTNINPYYFASACKLKKMGLPVEIRNSVFYYDGLEVYPTVIPYIARVIKYNWQVFNMKGNPMISFTVKNHDFKAVLLKGYEGLLQFYEQFILEQYGMFDYKDKTVIDIGGFIGDTALYFYSKEARKIVSFEPSKKNYTILIKNITLNNIKNVIPINAGVWDENTKGIITNPAPTAYRVKEESKGDVALVSILDIIDSYRPDIIKMDCEGCEYKVFEKLLETGYIYDVPEYVFEAHGNIKNELLSKLRSLDEFRLCVHSDLGNMAIVSLKKL
